Test results reported in patent publication US20180086837A1.

What was measured:
[1] = molecular target: cynomolgus CXCR4 (cynomolgus) (UniProt Q28474); assay: flow cytometry, transfected HEK293T cells; normalisation reference (column 10 nM)
[2] = molecular target: hCXCR4-V196E (human) (UniProt P61073); assay: as above
[3] = molecular target: cynomolgus CXCR4 (cynomolgus) (UniProt Q28474); assay: flow cytometry, transfected HEK293T cells; normalisation reference (column 100 nM)
[4] = molecular target: hCXCR4-V196E (human) (UniProt P61073); assay: as above

Measured: % binding relative to hCXCR4

hCXCR4-V196E (human), sequence (P61073 whole entry V196E): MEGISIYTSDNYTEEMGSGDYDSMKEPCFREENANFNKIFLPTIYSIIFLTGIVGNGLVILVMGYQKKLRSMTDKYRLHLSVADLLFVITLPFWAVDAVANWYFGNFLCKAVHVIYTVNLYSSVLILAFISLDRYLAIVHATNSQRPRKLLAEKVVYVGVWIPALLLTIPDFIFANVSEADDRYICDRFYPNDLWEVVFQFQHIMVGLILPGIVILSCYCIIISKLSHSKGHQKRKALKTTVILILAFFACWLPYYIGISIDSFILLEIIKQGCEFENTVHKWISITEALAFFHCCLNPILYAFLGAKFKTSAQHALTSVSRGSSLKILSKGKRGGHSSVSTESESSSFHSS
cynomolgus CXCR4 (cynomolgus), sequence (Q28474 whole entry): as the sequence (P61073 whole entry V196E) above, with M24I, N35H, K38R, R146K, N176S, E196V counted along it

anti-CXCR4 monoclonal antibody 12G5 (R&D Systems, MAB170)
100%: all assays above
